Results as given in PMC7005279, “Cryo-EM study of an archaeal 30S initiation complex gives insights into evolution of translation initiation” (Communications Biology, 2020).

Columns and labels:
[1] = molecular target: ribosomal protein uS11 of the Pyrococcus abyssi 30S subunit (P. abyssi, UniProt P62010 1-137); experiment: cryo-EM structure; IC2 complex (Pa-30S:mRNA:aIF1A:aIF2:GDPNP:Met-tRNAi) purified on TALON by N-terminally tagged aIF2β and aIF2α; overall 3.2 Å, classes IC2A 4.2 Å and IC2B 3.3 Å; aIF1A and aIF2 placed by rigid body fitting; conditions: both partners purified
[2] = molecular target: T1, ribosomal protein uS9 of the Pyrococcus abyssi 30S subunit (P. abyssi, UniProt Q9V195 1-135); experiment: as above; conditions: both partners purified
T1 construct: 30S ribosomal protein uS9 (S9), Pyrococcus abyssi; its C-terminal residue is printed as R135; Subunit of the native 30S; source: endogenous, in 30S subunits purified from P. abyssi
T1 sequence (Q9V195 whole entry): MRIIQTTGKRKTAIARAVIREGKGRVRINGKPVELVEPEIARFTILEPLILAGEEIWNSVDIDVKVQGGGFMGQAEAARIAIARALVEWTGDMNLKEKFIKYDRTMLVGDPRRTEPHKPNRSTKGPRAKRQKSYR

Row | binding result [1] | binding result [2] | Binder
1 | binds | – | ribosomal protein uS7 of the Pyrococcus abyssi 30S subunit (natural protein, Subunit of the native 30S; source: endogenous, in 30S subunits purified from P. abyssi) not shown
2 | – | binds | ribosomal protein uS19 of the Pyrococcus abyssi 30S subunit (natural protein, 30S ribosomal protein uS19 (S19), Pyrococcus abyssi; Subunit of the native 30S; source: endogenous, in 30S subunits purified from P. abyssi) not shown
